This assay concerns the target complex of PRAME peptide … (SEQ ID NO: 1) and HLA-A*02:01, presented on peptide-pulsed T2 cells (human). In words: cell-based or functional assay.

Residue numbers refer to the chain shown, from its start.

B1: TCR 3 (ADB02780_025) (TCR, V domains shown)
V domain 1: GQQLNQSPQSMFIQEGEDVSMNCTSSSIFNTWLWYKQDPGEGPVLLIALYKAGELTSNGRLTAQFGITRKDSFLNISASIPSDVGIYFCAGQASGTYKYIFGTGTRLKVLA
V domain 2: EAQVTQNPRYLITVTGKKLTVTCSQNMNHEYMSWYRQDPGLGLRQIYYSINVEVTDKGDVPEGYKVSRKEKRNFPLILESPSPNQTSLYFCASSHGTSGEQYFGPGTRLTVT
With B1, the “EC50 (peptide concentration required to induce half-maximal T-cell activation; IFNγ supernatant ELISA, transduced primary T cells with peptide-pulsed T2 cells)” value (shortened to “EC50”) is -7.8 log10 M.

B2: TCR 8 (ADB02780_106) (TCR, V domains shown)
V domain 1: B1 V domain 1 with N30A
V domain 2: B1 V domain 2
As for B2, the “EC50” value was -7.8 log10 M.

B3: TCR 5 (ADB02780_063) (TCR, V domains shown)
V domain 1: B1 V domain 1 with N30E
V domain 2: B1 V domain 2
With B3, the “EC50” value is -8.8 log10 M.

B4: TCR 9 (ADB02780_107) (TCR, V domains shown)
V domain 1: B1 V domain 1 with N30M
V domain 2: B1 V domain 2
On to B4, for which the “EC50” value is -7.8 log10 M.

B5: TCR 6 (ADB02780_070) (TCR, V domains shown)
V domain 1: B1 V domain 1 with N30V
V domain 2: B1 V domain 2
As to B5, the “EC50” value was -8.8 log10 M.

B6: TCR 4 (ADB02780_062) (TCR, V domains shown)
V domain 1: B1 V domain 1 with N30L
V domain 2: B1 V domain 2
With B6, the “EC50” value is -8.7 log10 M.

B7: TCR 7 (ADB02780_077) (TCR, V domains shown)
V domain 1: B1 V domain 1 with N30H
V domain 2: B1 V domain 2
Consider B7, for which the “EC50” value is -8.7 log10 M.

These data come from US20260232800A1 (ADAPTIMMUNE, published 2026).
